Source: the supplement of paper PMC10065799, “High-throughput profiling of sequence recognition by tyrosine kinases and SH2 domains using bacterial peptide display” (eLife, 2023)

What was measured:
Grb2 SH2 = Grb2 SH2 (UniProt P62993); experiment: SH2 binding enrichment of the phosphorylated peptide, bacterial display (enrichment ratio); higher = better substrate or ligand; peptides without Tyr show the background
c-Src SH2 = experiment: as above
SHP2-C SH2 = experiment: as above
EPHB2 = EPHB2 (UniProt P29323); experiment: phosphorylation enrichment, bacterial display (enrichment ratio); higher = better substrate or ligand; peptides without Tyr show the background
Sequence of EPHB2 (P29323 whole entry, looked up): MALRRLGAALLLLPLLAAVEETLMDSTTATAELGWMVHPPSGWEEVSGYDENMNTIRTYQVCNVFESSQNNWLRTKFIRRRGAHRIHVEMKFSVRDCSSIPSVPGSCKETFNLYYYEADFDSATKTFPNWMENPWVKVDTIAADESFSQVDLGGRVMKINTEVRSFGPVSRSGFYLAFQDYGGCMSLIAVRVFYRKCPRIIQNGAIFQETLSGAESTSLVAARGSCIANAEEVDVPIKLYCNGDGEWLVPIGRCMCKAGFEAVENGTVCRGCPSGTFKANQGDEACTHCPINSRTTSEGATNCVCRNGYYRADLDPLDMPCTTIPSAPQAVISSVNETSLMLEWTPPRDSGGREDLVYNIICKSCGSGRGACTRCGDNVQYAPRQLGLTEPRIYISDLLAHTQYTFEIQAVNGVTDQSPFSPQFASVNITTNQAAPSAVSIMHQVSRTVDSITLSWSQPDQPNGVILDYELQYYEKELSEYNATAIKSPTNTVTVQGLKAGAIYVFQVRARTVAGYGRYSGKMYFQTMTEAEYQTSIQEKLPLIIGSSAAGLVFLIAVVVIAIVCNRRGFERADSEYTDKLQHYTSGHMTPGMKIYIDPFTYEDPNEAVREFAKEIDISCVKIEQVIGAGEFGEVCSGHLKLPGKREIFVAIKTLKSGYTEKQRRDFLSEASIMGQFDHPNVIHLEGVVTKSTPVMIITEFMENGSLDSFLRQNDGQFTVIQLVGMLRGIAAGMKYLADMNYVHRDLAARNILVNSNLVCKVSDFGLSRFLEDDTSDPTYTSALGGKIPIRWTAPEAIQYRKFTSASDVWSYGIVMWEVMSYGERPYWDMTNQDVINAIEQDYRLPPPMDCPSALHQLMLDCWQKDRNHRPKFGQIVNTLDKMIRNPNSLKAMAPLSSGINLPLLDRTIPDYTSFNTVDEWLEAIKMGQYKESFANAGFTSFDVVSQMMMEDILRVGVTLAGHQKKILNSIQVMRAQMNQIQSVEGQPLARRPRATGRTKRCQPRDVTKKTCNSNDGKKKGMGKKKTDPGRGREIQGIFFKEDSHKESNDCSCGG

EPHB1 = EPHB1 (UniProt P54762); experiment: as above
Sequence of EPHB1 (P54762 whole entry, looked up): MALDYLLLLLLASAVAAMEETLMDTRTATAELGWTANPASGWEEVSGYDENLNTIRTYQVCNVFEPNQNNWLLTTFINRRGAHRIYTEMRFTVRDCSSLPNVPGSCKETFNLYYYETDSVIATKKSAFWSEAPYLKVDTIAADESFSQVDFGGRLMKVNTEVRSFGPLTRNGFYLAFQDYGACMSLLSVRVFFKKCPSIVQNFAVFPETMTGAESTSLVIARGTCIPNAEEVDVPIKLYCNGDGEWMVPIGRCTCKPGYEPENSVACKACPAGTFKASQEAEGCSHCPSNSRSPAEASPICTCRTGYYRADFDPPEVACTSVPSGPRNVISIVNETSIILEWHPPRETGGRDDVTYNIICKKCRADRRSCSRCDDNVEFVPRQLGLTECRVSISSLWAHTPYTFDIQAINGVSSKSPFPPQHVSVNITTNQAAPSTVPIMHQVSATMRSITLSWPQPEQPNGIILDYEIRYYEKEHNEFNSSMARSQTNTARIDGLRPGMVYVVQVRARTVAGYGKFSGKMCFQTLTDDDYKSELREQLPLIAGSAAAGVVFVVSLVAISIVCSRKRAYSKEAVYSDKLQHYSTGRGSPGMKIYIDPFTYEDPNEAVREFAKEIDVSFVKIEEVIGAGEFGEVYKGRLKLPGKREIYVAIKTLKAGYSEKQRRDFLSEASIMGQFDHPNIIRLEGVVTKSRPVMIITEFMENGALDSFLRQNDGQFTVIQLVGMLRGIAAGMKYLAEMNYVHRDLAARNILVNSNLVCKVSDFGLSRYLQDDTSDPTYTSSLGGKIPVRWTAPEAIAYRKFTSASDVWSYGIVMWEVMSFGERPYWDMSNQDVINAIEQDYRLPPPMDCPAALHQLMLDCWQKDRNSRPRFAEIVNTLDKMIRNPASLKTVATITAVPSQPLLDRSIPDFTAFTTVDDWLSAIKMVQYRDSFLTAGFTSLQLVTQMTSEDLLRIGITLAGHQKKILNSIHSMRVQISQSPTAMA

FGFR3 = FGFR3 (UniProt P22607); experiment: as above
Sequence of FGFR3 (P22607 whole entry, looked up): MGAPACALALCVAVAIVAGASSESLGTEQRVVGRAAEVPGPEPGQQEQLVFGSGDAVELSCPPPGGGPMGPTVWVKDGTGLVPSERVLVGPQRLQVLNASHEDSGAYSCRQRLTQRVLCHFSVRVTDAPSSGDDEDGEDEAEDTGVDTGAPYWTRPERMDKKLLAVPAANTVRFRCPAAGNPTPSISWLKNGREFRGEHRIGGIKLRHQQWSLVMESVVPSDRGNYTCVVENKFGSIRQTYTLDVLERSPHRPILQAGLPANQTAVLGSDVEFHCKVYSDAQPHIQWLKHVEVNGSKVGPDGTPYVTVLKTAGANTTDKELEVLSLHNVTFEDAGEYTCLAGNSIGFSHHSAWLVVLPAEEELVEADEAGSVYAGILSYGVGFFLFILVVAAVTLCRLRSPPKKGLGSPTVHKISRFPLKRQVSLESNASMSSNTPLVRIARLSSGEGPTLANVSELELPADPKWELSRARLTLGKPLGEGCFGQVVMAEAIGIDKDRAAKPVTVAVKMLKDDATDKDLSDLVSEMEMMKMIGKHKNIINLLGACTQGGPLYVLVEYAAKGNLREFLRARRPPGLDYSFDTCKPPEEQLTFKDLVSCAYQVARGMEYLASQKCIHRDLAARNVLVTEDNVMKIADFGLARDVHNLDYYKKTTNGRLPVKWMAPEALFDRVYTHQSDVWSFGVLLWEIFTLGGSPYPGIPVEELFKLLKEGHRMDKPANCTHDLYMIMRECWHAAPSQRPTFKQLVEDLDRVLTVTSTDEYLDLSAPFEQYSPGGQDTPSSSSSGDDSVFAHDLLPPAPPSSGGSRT

MERTK = MERTK (UniProt Q12866); experiment: as above
c-Src = experiment: as above
c-Abl (mouse) = experiment: as above
Hck = Hck (UniProt P08631); experiment: as above
Sequence of Hck (P08631 whole entry, looked up): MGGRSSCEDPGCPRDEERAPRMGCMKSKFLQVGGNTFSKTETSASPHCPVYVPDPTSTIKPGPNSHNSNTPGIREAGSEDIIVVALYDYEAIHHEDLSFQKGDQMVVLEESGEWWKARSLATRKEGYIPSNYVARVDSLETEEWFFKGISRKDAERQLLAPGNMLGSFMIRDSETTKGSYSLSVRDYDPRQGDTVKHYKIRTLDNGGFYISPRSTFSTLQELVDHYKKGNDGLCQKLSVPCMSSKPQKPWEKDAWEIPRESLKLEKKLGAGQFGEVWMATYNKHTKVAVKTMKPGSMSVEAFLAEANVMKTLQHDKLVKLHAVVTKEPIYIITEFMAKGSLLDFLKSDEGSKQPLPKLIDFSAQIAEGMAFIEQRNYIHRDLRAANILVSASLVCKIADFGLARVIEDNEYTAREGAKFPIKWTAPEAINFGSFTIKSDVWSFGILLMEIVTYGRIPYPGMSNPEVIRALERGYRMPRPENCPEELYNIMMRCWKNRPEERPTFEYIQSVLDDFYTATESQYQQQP

Jak2 = Jak2 (UniProt O60674); experiment: as above
Fes = Fes (UniProt P07332); experiment: as above
Sequence of Fes (P07332 whole entry, looked up): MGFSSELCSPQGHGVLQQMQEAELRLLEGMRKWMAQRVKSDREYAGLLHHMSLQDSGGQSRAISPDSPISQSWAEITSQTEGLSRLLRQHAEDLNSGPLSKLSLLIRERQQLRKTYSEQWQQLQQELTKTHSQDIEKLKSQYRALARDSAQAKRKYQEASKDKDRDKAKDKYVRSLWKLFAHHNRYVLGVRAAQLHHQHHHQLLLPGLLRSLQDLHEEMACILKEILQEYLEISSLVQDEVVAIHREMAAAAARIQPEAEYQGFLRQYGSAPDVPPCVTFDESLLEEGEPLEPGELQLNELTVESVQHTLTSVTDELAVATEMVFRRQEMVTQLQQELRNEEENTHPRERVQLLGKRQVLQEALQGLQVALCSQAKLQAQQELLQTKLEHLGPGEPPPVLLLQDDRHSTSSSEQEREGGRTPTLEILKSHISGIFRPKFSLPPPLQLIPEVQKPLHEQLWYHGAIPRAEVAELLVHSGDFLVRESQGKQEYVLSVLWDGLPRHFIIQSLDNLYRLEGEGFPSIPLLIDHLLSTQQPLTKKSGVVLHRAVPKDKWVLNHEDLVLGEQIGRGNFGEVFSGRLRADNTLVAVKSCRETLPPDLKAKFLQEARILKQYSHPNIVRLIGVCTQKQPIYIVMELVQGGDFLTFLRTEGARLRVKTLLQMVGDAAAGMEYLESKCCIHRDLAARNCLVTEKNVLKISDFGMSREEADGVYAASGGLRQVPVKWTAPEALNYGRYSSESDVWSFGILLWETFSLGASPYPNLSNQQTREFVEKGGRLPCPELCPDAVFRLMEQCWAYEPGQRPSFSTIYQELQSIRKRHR

Fyn = Fyn (UniProt P06241); experiment: as above
Sequence of Fyn (P06241 whole entry, looked up): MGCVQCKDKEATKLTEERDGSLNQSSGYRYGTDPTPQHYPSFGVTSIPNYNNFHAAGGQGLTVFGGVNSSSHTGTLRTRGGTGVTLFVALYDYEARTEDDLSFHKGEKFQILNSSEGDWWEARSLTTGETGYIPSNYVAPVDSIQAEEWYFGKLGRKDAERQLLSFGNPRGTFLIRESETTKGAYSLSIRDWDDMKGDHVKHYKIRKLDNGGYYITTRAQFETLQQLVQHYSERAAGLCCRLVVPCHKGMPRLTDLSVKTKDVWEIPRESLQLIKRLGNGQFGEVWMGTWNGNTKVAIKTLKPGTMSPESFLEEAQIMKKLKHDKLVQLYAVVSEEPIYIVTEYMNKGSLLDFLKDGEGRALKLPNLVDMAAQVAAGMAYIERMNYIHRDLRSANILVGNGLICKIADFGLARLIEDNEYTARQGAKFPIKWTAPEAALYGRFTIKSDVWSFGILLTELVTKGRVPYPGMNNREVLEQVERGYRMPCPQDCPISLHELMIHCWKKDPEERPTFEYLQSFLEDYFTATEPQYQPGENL

Fer (mouse) = experiment: as above
AncSZ = experiment: as above
FGFR1 = FGFR1 (UniProt P11362); experiment: as above
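For SH2 binding enrichment of the phosphorylated peptide, bacterial display in this document: peptide library displayed on the E. coli surface as eCPX fusions, selected cells deep-sequenced, score is each peptide's frequency after selection divided by its frequency in the input.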
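For phosphorylation enrichment, bacterial display in this document: 11-residue human phosphosite peptides and single-mutation variants displayed on the E. coli surface, counted by deep sequencing, each peptide's frequency after selection divided by its frequency in the unselected input library; frequency after pTyr selection over input frequency; kinase dosed for 20-30% of maximal phosphorylation in three min.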

Sequence of Grb2 SH2 (P62993 whole entry, looked up): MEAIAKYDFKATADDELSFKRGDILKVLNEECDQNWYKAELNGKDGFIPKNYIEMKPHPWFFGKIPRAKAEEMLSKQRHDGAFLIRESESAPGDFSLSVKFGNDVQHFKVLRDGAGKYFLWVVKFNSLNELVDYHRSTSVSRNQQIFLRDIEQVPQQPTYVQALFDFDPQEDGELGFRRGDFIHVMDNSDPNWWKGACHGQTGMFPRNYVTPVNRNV

Row | Sequence | SH2 binding enrichment (Grb2 SH2) | SH2 binding enrichment (c-Src SH2) | SH2 binding enrichment (SHP2-C SH2) | phosphorylation enrichment (EPHB2) | phosphorylation enrichment (EPHB1) | phosphorylation enrichment (FGFR3) | phosphorylation enrichment (MERTK) | phosphorylation enrichment (c-Src) | phosphorylation enrichment (c-Abl (mouse)) | phosphorylation enrichment (Hck) | phosphorylation enrichment (Jak2) | phosphorylation enrichment (Fes) | phosphorylation enrichment (Fyn) | phosphorylation enrichment (Fer (mouse)) | phosphorylation enrichment (AncSZ) | phosphorylation enrichment (FGFR1)
1 | ECKHLYSRKEG [PTPN11_Y263_L261H] | 0.995 | 0.717 | 0.711 | 0.285 | 0.406 | 0.397 | 0.388 | 0.388 | 0.458 | 0.329 | 0.419 | 0.579 | 0.407 | 0.4 | 0.451 | 0.463
2 | EDDPEYMRLRN [ADD2_Y31] | 0.838 | 0.506 | 0.587 | 0.594 | 0.674 | 0.887 | 0.414 | 0.509 | 0.823 | 0.724 | 1.12 | 1.17 | 0.601 | 0.589 | 1.2 | 0.785
3 | EDEGLYMVRVP [MYOM3_Y343] | 0.776 | 0.472 | 0.628 | 1.71 | 1.74 | 0.736 | 1.79 | 3.41 | 0.812 | 4.63 | 1.24 | 1.43 | 3.03 | 1.89 | 1.58 | 0.56
4 | EDKFMYSEFPQ [PTEN_Y240_F241S] | 0.951 | 0.542 | 0.739 | 1.05 | 0.771 | 1.45 | 2.02 | 2.91 | 1.03 | 2.07 | 1.14 | 1.21 | 1.25 | 0.734 | 1.51 | 1.49
5 | EEGRVYVFHLS [ITGAE_Y549_R552H_YF] | 0.888 | 0.482 | 0.567 | 0.573 | 0.672 | 0.756 | 0.48 | 0.522 | 0.825 | 0.46 | 0.958 | 1.25 | 0.512 | 0.648 | 1.18 | 0.557
6 | EEGRVYVFRLS [ITGAE_Y549_YF] | 1.05 | 0.665 | 0.806 | 0.605 | 0.606 | 0.836 | 0.475 | 0.625 | 0.812 | 0.617 | 1.14 | 1.37 | 0.509 | 0.533 | 1.13 | 0.508
7 | EEHIPCTHMNG [INSR_Y1361_Y1361C] | 0.709 | 0.649 | 0.7 | 0.597 | 0.581 | 0.632 | 0.552 | 0.497 | 0.865 | 0.435 | 1.03 | 0.867 | 0.436 | 0.612 | 0.916 | 0.592
8 | EEKSCYILHSS [PATJ_Y783_E780K] | 0.805 | 0.628 | 0.893 | 0.647 | 0.669 | 0.704 | 0.449 | 0.514 | 0.779 | 0.651 | 0.744 | 1.22 | 0.753 | 0.622 | 1.08 | 0.755
9 | EEQFFYEKAIL [BCCIP_Y257_E254Q] | 1.04 | 0.53 | 0.795 | 0.48 | 0.434 | 0.588 | 0.502 | 0.608 | 0.748 | 0.654 | 0.828 | 0.999 | 0.466 | 3.96 | 1.11 | 0.442
10 | EFENSYIFDIN [GAB1_Y83] | 0.82 | 0.581 | 0.854 | 0.58 | 0.435 | 0.695 | 0.419 | 0.432 | 0.501 | 0.488 | 1.16 | 1.16 | 0.519 | 0.489 | 1.25 | 0.478
11 | EFFDGYWGFSV [ITGA2B_Y265_YF] | 0.705 | 0.657 | 0.634 | 0.58 | 0.633 | 4.7 | 1.14 | 5.54 | 1.53 | 3.31 | 8.01 | 1.15 | 3.98 | 0.54 | 1.43 | 6.3
12 | EFFENYIEELK [PARP4_Y218_F215Y_YF] | 0.941 | 0.502 | 0.663 | 0.669 | 0.617 | 0.744 | 0.425 | 0.501 | 0.869 | 0.533 | 1.41 | 1.35 | 0.421 | 0.532 | 1.3 | 0.488
13 | EFGFRYELVQF [UGGT2_Y1289_Y1285F_YF] | 0.849 | 1.4 | 0.859 | 0.585 | 0.592 | 0.853 | 0.375 | 0.315 | 0.64 | 0.509 | 1.11 | 1.21 | 0.433 | 0.887 | 1.26 | 0.477
14 | EFGFRYELVQY [UGGT2_Y1289_Y1285F] | 0.566 | 1.39 | 0.501 | 0.507 | 0.573 | 0.617 | 0.338 | 0.393 | 0.627 | 0.429 | 1.05 | 1.14 | 0.329 | 0.611 | 1.11 | 0.512
15 | EFQLPYFNMVP [BMPR1A_Y457_YF] | 2.82 | 0.751 | 0.95 | 0.46 | 0.389 | 3.58 | 0.584 | 2.12 | 0.618 | 0.596 | 7.21 | 1.01 | 0.547 | 0.348 | 1.01 | 5
16 | EGLKVYVNGTL [ADGRD1_Y183] | 1.68 | 0.502 | 0.757 | 0.68 | 0.633 | 1.05 | 0.469 | 0.418 | 0.848 | 0.457 | 1.24 | 1.33 | 0.497 | 0.491 | 1.22 | 0.527
